Results reported in US20140179594A1, “STREPTOCOCCUS BACTERIOPHAGE LYSINS FOR TREATMENT OF GRAM POSITIVE BACTERIA IN COMPANION ANIMALS AND LIVESTOCK” (priority 2011, published 2014).

Assays:
[1] = system: S. pyogenes A486; assay: ΔPlySs1 OD600 lysis, 1 hr; assay type: cell-based
[2] = system: S. pyogenes D471; assay: ΔPlySs1 OD600 lysis, 1 hr; assay type: cell-based
[3] = system: S. pneumoniae R36; assay: ΔPlySs1 OD600 lysis, 1 hr; assay type: cell-based
[4] = system: S. aureus RN4220; assay: ΔPlySs1 OD600 lysis, 1 hr; assay type: cell-based
[5] = system: S. dysgalactiae GGS; assay: ΔPlySs1 OD600 lysis, 1 hr; assay type: cell-based
[6] = system: S. suis strain 7711; assay: ΔPlySs1 growth inhibition in BHI broth; assay type: cell-based; settings: strain 7711 in BHI broth, overnight
Procedure: The optical density of each sample was measured continuously overnight in 96-well plate format. Overall, bacterial growth was delayed in a dose-dependent manner. However, for enzyme-concentrations that were sufficient to induce lysis in buffered solutions (130 and 50 μg/ml), the effect was quite minimal here. […] For all of the treated samples, one will note that the final optical densities are actually higher than that of the untreated sample. This is an artifact of the accumulation of aggregated bacterial debris that occurred in the presence of lytic enzyme.
(§1) Given the above experiments, the following optimal buffering conditions were employed for all further in vitro experiments with ΔPlySs1: 20 mM phosphate buffer, pH=7.8, 2 mM EDTA. A range of lysin concentrations, from 6.5-130 μg/ml, were introduced to live S. suis cells in this buffer. Three strains were considered particularly relevant: 7711, the serotype 7 strain that encodes PlySs1; 5735, the serotype 2 reference strain; and 7997, a highly virulent serotype 9 strain. In terms of bacterial viability, only the highest PlySs1-concentration (130 μg/ml) led to a >90% decrease in CFUs for 7711, S735, and 7997 after 1 hr treatment (TABLE 2). The lysin was also tested against actively-dividing cells in broth culture (strain 7711) (FIG. 20).

[7] = system: B. cereus 14579; assay: ΔPlySs1 OD600 lysis, 1 hr; assay type: cell-based
[8] = system: S. dysgalactiae 21597; assay: ΔPlySs1 OD600 lysis, 1 hr; assay type: cell-based
[9] = system: E. faecalis V583; assay: ΔPlySs1 OD600 lysis, 1 hr; assay type: cell-based
[10] = system: B. subtilis SL4; assay: ΔPlySs1 OD600 lysis, 1 hr; assay type: cell-based
[11] = system: B. thuringiensis HD73; assay: ΔPlySs1 OD600 lysis, 1 hr; assay type: cell-based
[12] = system: S. equi 9528; assay: ΔPlySs1 OD600 lysis, 1 hr; assay type: cell-based
[13] = system: S. equi 700400; assay: ΔPlySs1 OD600 lysis, 1 hr; assay type: cell-based
[14] = system: S. suis 7711 (ST7); assay: ΔPlySs1 CFU analysis; assay type: cell-based; settings: 1 hr
Procedure: as §1
For two ΔPlySs1 concentrations (130 and 13 μg/ml), CFU analysis was conducted on S. suis strains 5735, 7997, and 7711 after 1 hr treatment (optimal buffering conditions). In each experiment, the percentage-decrease in CFUs was determined for the treated sample versus the untreated. The range of the values observed (across 3 independent experiments) is reported here for each strain. The serotype of each strain is indicated in parentheses.

[15] = system: purified S. suis cell walls (from type strain 5735); assay: PlySs1 bond specificity, double digestion with HEWL, mass spectrum; assay type: biochemical; settings: double digestion with HEWL and PlySs1
Description: To determine the bond specificity of the enzymatic domain of PlySs1, purified S. suis cell walls (from type strain 5735) were subject to double digestion with HEWL (a muramidase) and PlySs1. The two predominant peaks were m/z=718 and m/z=734. This corresponds exactly to the predicted masses of the [Na-M]+ and [K-M]+ adducts of GlcNAc-MurNAc-LAla-D-Gln. […] When a mass spectrum was taken of undigested cell wall, the above two peaks were absent.

[16] = system: S. rattus BHT; assay: ΔPlySs1 OD600 lysis, 1 hr; assay type: cell-based
[17] = system: S. simulans TNK3; assay: ΔPlySs1 OD600 lysis, 1 hr; assay type: cell-based
[18] = system: S. epidermidis HN1292; assay: ΔPlySs1 OD600 lysis, 1 hr; assay type: cell-based

B1: ΔPlySs1: truncated PlySs1 lysin with N-terminal enzymatic and central binding domains, N-terminal 254 amino acids, SEQ ID NO:2 (protein, listed as Streptococcus suis)
chain: MTINLETSIRWMSDRVGKVSYSMDYRNGPNSYDCSSAVYYALMAGGAISAGWAVNTEYMHDWLIRNGYVLVAENKPFNAQRHDVCILGKRGYSSGAGGHVVIFVDNVNVIHCNYARNGISIDNYNQVHRGMYYYLYRPANQPSISNKSLDQLVKETLAGVHGNGDTRKASLGSQYEAVMAVINGKASASEKSDEELAREVLAGKHGAGEDRKRSLGPRYEPVQAKVNELLKAKEKPSETAKNEPQTVQFKEDGDL
1-hour treated/untreated OD600-ratio ([1]; 6.5 μg/ml): 0.12
1-hour treated/untreated OD600-ratio ([1]; 13 μg/ml): 0.13
1-hour treated/untreated OD600-ratio ([1]; 30 μg/ml): 0.13
1-hour treated/untreated OD600-ratio ([1]; 65 μg/ml): 0.11
1-hour treated/untreated OD600-ratio ([1]; 130 μg/ml): 0.10
1-hour treated/untreated OD600-ratio ([2]; 6.5 μg/ml): 0.39
1-hour treated/untreated OD600-ratio ([2]; 13 μg/ml): 0.27
1-hour treated/untreated OD600-ratio ([2]; 30 μg/ml): 0.17
1-hour treated/untreated OD600-ratio ([2]; 65 μg/ml): 0.13
1-hour treated/untreated OD600-ratio ([2]; 130 μg/ml): 0.09
1-hour treated/untreated OD600-ratio ([3]; 6.5 μg/ml): 0.25
1-hour treated/untreated OD600-ratio ([3]; 13 μg/ml): 0.22
1-hour treated/untreated OD600-ratio ([3]; 30 μg/ml): 0.14
1-hour treated/untreated OD600-ratio ([3]; 65 μg/ml): 0.16
1-hour treated/untreated OD600-ratio ([3]; 130 μg/ml): 0.12
1-hour treated/untreated OD600-ratio ([4]; 6.5 μg/ml): 0.89
1-hour treated/untreated OD600-ratio ([4]; 13 μg/ml): 0.78
1-hour treated/untreated OD600-ratio ([4]; 30 μg/ml): 0.55
1-hour treated/untreated OD600-ratio ([4]; 65 μg/ml): 0.31
1-hour treated/untreated OD600-ratio ([4]; 130 μg/ml): 0.10
1-hour treated/untreated OD600-ratio ([5]; 6.5 μg/ml): 0.30
1-hour treated/untreated OD600-ratio ([5]; 13 μg/ml): 0.27
1-hour treated/untreated OD600-ratio ([5]; 30 μg/ml): 0.15
1-hour treated/untreated OD600-ratio ([5]; 65 μg/ml): 0.11
1-hour treated/untreated OD600-ratio ([5]; 130 μg/ml): 0.14
growth inhibition of actively-dividing cells [6]: could not inhibit S. suis growth outright
1-hour treated/untreated OD600-ratio ([7]; 6.5 μg/ml): 0.93
1-hour treated/untreated OD600-ratio ([7]; 13 μg/ml): 0.92
1-hour treated/untreated OD600-ratio ([7]; 30 μg/ml): 0.86
1-hour treated/untreated OD600-ratio ([7]; 65 μg/ml): 0.90
1-hour treated/untreated OD600-ratio ([7]; 130 μg/ml): 0.86
1-hour treated/untreated OD600-ratio ([8]; 6.5 μg/ml): 0.26
1-hour treated/untreated OD600-ratio ([8]; 13 μg/ml): 0.18
1-hour treated/untreated OD600-ratio ([8]; 30 μg/ml): 0.12
1-hour treated/untreated OD600-ratio ([8]; 65 μg/ml): 0.10
1-hour treated/untreated OD600-ratio ([8]; 130 μg/ml): 0.09
1-hour treated/untreated OD600-ratio ([9]; 6.5 μg/ml): 0.98
1-hour treated/untreated OD600-ratio ([9]; 13 μg/ml): 0.93
1-hour treated/untreated OD600-ratio ([9]; 30 μg/ml): 0.84
1-hour treated/untreated OD600-ratio ([9]; 65 μg/ml): 0.71
1-hour treated/untreated OD600-ratio ([9]; 130 μg/ml): 0.52
1-hour treated/untreated OD600-ratio ([10]; 6.5 μg/ml): 1.07
1-hour treated/untreated OD600-ratio ([10]; 13 μg/ml): 1.05
1-hour treated/untreated OD600-ratio ([10]; 30 μg/ml): 1.04
1-hour treated/untreated OD600-ratio ([10]; 65 μg/ml): 1.03
1-hour treated/untreated OD600-ratio ([10]; 130 μg/ml): 0.96
1-hour treated/untreated OD600-ratio ([11]; 6.5 μg/ml): 0.99
1-hour treated/untreated OD600-ratio ([11]; 13 μg/ml): 0.98
1-hour treated/untreated OD600-ratio ([11]; 30 μg/ml): 0.93
1-hour treated/untreated OD600-ratio ([11]; 65 μg/ml): 0.86
1-hour treated/untreated OD600-ratio ([11]; 130 μg/ml): 0.60
1-hour treated/untreated OD600-ratio ([12]; 6.5 μg/ml): 0.66
1-hour treated/untreated OD600-ratio ([12]; 13 μg/ml): 0.45
1-hour treated/untreated OD600-ratio ([12]; 30 μg/ml): 0.25
1-hour treated/untreated OD600-ratio ([12]; 65 μg/ml): 0.19
1-hour treated/untreated OD600-ratio ([12]; 130 μg/ml): 0.16
1-hour treated/untreated OD600-ratio ([13]; 6.5 μg/ml): 0.48
1-hour treated/untreated OD600-ratio ([13]; 13 μg/ml): 0.25
1-hour treated/untreated OD600-ratio ([13]; 30 μg/ml): 0.15
1-hour treated/untreated OD600-ratio ([13]; 65 μg/ml): 0.07
1-hour treated/untreated OD600-ratio ([13]; 130 μg/ml): 0.09
percentage-decrease in CFUs, treated versus untreated (range of 3 experiments) ([14]; 13 μg/ml): 0%-35.6%
percentage-decrease in CFUs, treated versus untreated (range of 3 experiments) ([14]; 130 μg/ml): 95.3%-99.2%
percentage-decrease in CFUs, treated versus untreated (range of 3 experiments) ([14]; 130 μg/ml, listed as PlySs1): > 90%
bond specificity of the enzymatic domain [15]: gamma-endopeptidase activity
1-hour treated/untreated OD600-ratio ([16]; 6.5 μg/ml): 0.82
1-hour treated/untreated OD600-ratio ([16]; 13 μg/ml): 0.84
1-hour treated/untreated OD600-ratio ([16]; 30 μg/ml): 0.82
1-hour treated/untreated OD600-ratio ([16]; 65 μg/ml): 0.83
1-hour treated/untreated OD600-ratio ([16]; 130 μg/ml): 0.79
1-hour treated/untreated OD600-ratio ([17]; 6.5 μg/ml): 0.96
1-hour treated/untreated OD600-ratio ([17]; 13 μg/ml): 1.00
1-hour treated/untreated OD600-ratio ([17]; 30 μg/ml): 1.00
1-hour treated/untreated OD600-ratio ([17]; 65 μg/ml): 1.00
1-hour treated/untreated OD600-ratio ([17]; 130 μg/ml): 0.96
1-hour treated/untreated OD600-ratio ([18]; 6.5 μg/ml): 1.04
1-hour treated/untreated OD600-ratio ([18]; 13 μg/ml): 1.00
1-hour treated/untreated OD600-ratio ([18]; 30 μg/ml): 0.96
1-hour treated/untreated OD600-ratio ([18]; 65 μg/ml): 0.94
1-hour treated/untreated OD600-ratio ([18]; 130 μg/ml): 0.87
